The values that follow come from patent publication US20060110401A1, “Mixture of peptides from c and ns3 proteins of the hepatitis c virus and applications thereof” (priority 2002, published 2006).

Experiment [1] addresses HLA-DR11 (DRB1*1101) (human). The experiment in a line: competition binding.
The target in experiment [2] is HLA-DR15 (DRB1*1501) (human). Kind of experiment: competition binding.
For experiment [3], the target named is HLA-DR3 (DRB1*0301) (human). The experiment in a line: competition binding.
In experiment [4] the target is HLA-DR4 (DRB1*0401) (human). Kind of experiment: competition binding.
The target in experiment [5] is HLA-DR7 (DRB1*0701) (human). Kind of experiment: competition binding.
In experiment [6] the target is HLA-DRB3 (DRB3*0101) (human). Kind of experiment: competition binding.
Experiment [7] has as its target HLA-DRB4 (DRB4*0101) (human). Kind of experiment: competition binding.
For experiment [8], the target named is HLA-DRB5 (DRB5*0101) (human). The experiment in a line: competition binding.
Experiment [9] addresses HLA-DR1 (DRB1*0101) (human). The experiment in a line: competition ELISA, purified HLA II; tracer biotinylated HA 306-318.

Consider “9N 1036-1055 (from UniProt P26664 1036-1055)”, for which the IC50 in experiment [1] is 163 nM; in experiment [2] it was 10000 nM; in experiment [3], 6000 nM; in [4], 60 nM; in experiment [5], 1250 nM; in experiment [6], 35000 nM. Besides, the IC50 in experiment [7] worked out at 150 nM; in experiment [8], 10 nM.

“28N 1524-1553 (peptide; other documents disagree on this pair)” displayed an IC50 in experiment [9] of 2 nM.
